± gives the uncertainty stated by the source.
Test: self-splicing fitness, log relative to wild type (ln ratio); higher = more splicing; Tetrahymena group I intron in knt gene, E. coli kanamycin selection, DiMSum; sequences stand for … in CUCUCU…GGAGGGAAAAGUUAUCAGGCAUGCACCUGGUAGCUAGUCUUUAAACCAAUAGAUUGCAUCGGUUUAAAAGGCAAGACCGUCAAAUUGCGGGAAAGGGGUCAACAGCCGUUCAGUACCAAGUCUCAGGGGAAACUUUGAGAUGGCCUUGCAAAGGGUAUGGUAAUAAGCUGACGGACAUGGUCCUAACCACGCAGCCAAGUCCUAAGUCAACAGAUCUUCUGUUGAUAUGGAUGCAGUUCACAGACUAAAUGUCGGUCGGGGAAGAUGUAUUCUUCUCAUAAGAUAUAGUCGGACCUCUCCUUAAUGGGAGCUAGCGGAUGAAGUGAUGCAACACUGGAGCCGCUGGGAACUAAUUUGUAUGCGAAAGUAUAUUGAUUAGUUUUGGAGUACUCGUGGUCG
Summary of the method: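 Pooled colonies went to amplicon sequencing on an Illumina HiSeq 2500 after six replicate transformations. The plates were LB agar with 100 μg/mL carbenicillin, 50 μM IPTG and 0.2% rhamnose, with or without 25 μg/mL kanamycin, incubated overnight at 37°C or 30°C. The E. coli BL21(DE3) library had all eight P1ex-region intron nucleotides randomised, the intron placed in the knt kanamycin-resistance gene on pET-22b(+). DiMSum fitness is the error-weighted combination of replicate fold changes, kanamycin against none, normalised to wild type.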

| Sequence | self-splicing fitness (ln) (30 °C) | self-splicing fitness (ln) (37 °C) |
| --- | --- | --- |
| GAAAAGCAAUAUUACGGUUC | -3.18 ± 0.11 | -2.88 ± 0.16 |
| GAAAAGCAAUAUUACGGUUG | -2.39 ± 0.088 | -1.42 ± 0.12 |
| GAAAAGCAAUAUUACGUCGA | -1.14 ± 0.088 | -0.0848 ± 0.12 |
| GAAAAGCAAUAUUACGUCUG | -0.835 ± 0.068 | -0.219 ± 0.084 |
| GAAAAGCAAUAUUACGUCUU | -0.419 ± 0.068 | 0.391 ± 0.086 |
| GAAAAGCAAUAUUACGUGCA | -0.843 ± 0.073 | -0.0478 ± 0.085 |
| GAAAAGCAAUAUUACGUUCU | -3.87 ± 0.17 | -3.19 ± 0.18 |
| GAACAGCAAUAUUACGAAUA | -1.48 ± 0.098 | -0.755 ± 0.11 |
| GAACAGCAAUAUUACGACAC | -0.422 ± 0.08 | 0.0163 ± 0.1 |
| GAACAGCAAUAUUACGACUA | -0.346 ± 0.085 | -0.46 ± 0.097 |
| GAACAGCAAUAUUACGCAUG | -1.18 ± 0.064 | -0.291 ± 0.08 |
| GAACAGCAAUAUUACGCCUU | -0.755 ± 0.13 | 0.356 ± 0.14 |
| GAACAGCAAUAUUACGCGGC | -4 ± 0.43 | -1.6 ± 0.23 |
| GAACAGCAAUAUUACGCUAC | -4.08 ± 0.34 | -1.64 ± 0.37 |
| GAACAGCAAUAUUACGCUUC | -4.44 ± 0.19 | -3.19 ± 0.2 |
| GAACAGCAAUAUUACGGACG | -1.88 ± 0.11 | -0.3 ± 0.12 |
| GAACAGCAAUAUUACGGAUC | -0.794 ± 0.06 | -0.441 ± 0.08 |
| GAACAGCAAUAUUACGGAUU | -1.29 ± 0.076 | -0.167 ± 0.093 |
| GAACAGCAAUAUUACGGCAC | -0.296 ± 0.083 | -0.0202 ± 0.1 |
| GAACAGCAAUAUUACGGCAU | -0.904 ± 0.085 | -0.254 ± 0.096 |
| GAACAGCAAUAUUACGGCGA | -1.38 ± 0.09 | -0.318 ± 0.077 |
| GAACAGCAAUAUUACGGUUG | -2 ± 0.1 | -0.692 ± 0.12 |
| GAACAGCAAUAUUACGUAAA | -0.541 ± 0.061 | 0.234 ± 0.075 |
| GAACAGCAAUAUUACGUCUA | -0.567 ± 0.074 | -0.586 ± 0.073 |
| GAACAGCAAUAUUACGUGUG | -1.35 ± 0.054 | -0.967 ± 0.069 |

| Sequence | self-splicing fitness (ln) (30 °C) | self-splicing fitness (ln) (37 °C) |
| --- | --- | --- |
| GAAGAGCAAUAUUACGAACC | -1.82 ± 0.25 | -1.13 ± 0.29 |
| GAAGAGCAAUAUUACGAAGU | -3.98 ± 0.42 | -2.85 ± 0.3 |
| GAAGAGCAAUAUUACGACAA | – | -2.02 ± 0.38 |
| GAAGAGCAAUAUUACGAUAA | -3.7 ± 0.29 | -2.11 ± 0.22 |
| GAAGAGCAAUAUUACGAUAG | -3.04 ± 0.24 | -2.14 ± 0.29 |
| GAAGAGCAAUAUUACGAUGC | -2.13 ± 0.16 | -1.9 ± 0.18 |
| GAAGAGCAAUAUUACGCACU | -2.39 ± 0.17 | -1.33 ± 0.18 |
| GAAGAGCAAUAUUACGCAGU | -2.47 ± 0.2 | -2.38 ± 0.23 |
| GAAGAGCAAUAUUACGCGCA | -1.11 ± 0.2 | -1.35 ± 0.14 |
| GAAGAGCAAUAUUACGCUAC | -3.19 ± 0.25 | – |
| GAAGAGCAAUAUUACGCUGA | – | -2.3 ± 0.28 |
| GAAGAGCAAUAUUACGGAAG | -2.81 ± 0.2 | -2.59 ± 0.44 |
| GAAGAGCAAUAUUACGGAUC | -1.1 ± 0.071 | -1.1 ± 0.09 |
| GAAGAGCAAUAUUACGGGUA | -2.6 ± 0.19 | -1.89 ± 0.15 |
| GAAGAGCAAUAUUACGUAAC | -1.31 ± 0.12 | -1.54 ± 0.21 |
| GAAGAGCAAUAUUACGUCCA | -3.13 ± 0.4 | – |
| GAAGAGCAAUAUUACGUGAA | -2.94 ± 0.15 | -2.03 ± 0.17 |
| GAAGAGCAAUAUUACGUGGU | -4.07 ± 0.23 | -3.01 ± 0.32 |
| GAAGAGCAAUAUUACGUUGG | -3.53 ± 0.18 | -2.34 ± 0.16 |
| GAAUAGCAAUAUUACGAAAU | -1.3 ± 0.1 | -1.6 ± 0.13 |
| GAAUAGCAAUAUUACGACAC | -0.0325 ± 0.3 | -0.0524 ± 0.23 |
| GAAUAGCAAUAUUACGACAU | -0.389 ± 0.012 | 0.00512 ± 0.033 |
| GAAUAGCAAUAUUACGACGC | 0.293 ± 0.13 | -0.0831 ± 0.16 |
| GAAUAGCAAUAUUACGAGAC | – | -0.147 ± 0.18 |

From the supplement of paper PMC7877785
